Data reported in article PMC13078783 (2026).

Legend:
KLC1 TPR domain = assay: FP
KLC2 TPR domain = assay: FP
KLC2 TPR domain, sequence (chain, as listed by the source): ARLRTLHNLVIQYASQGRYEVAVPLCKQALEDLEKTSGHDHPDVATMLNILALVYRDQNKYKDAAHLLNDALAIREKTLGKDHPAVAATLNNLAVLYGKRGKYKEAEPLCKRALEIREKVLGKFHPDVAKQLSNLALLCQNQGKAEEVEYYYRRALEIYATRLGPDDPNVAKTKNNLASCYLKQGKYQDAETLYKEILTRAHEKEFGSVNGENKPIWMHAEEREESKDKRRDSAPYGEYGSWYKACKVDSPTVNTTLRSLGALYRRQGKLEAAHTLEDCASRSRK

KLC1 TPR domain, sequence (chain, as listed by the source): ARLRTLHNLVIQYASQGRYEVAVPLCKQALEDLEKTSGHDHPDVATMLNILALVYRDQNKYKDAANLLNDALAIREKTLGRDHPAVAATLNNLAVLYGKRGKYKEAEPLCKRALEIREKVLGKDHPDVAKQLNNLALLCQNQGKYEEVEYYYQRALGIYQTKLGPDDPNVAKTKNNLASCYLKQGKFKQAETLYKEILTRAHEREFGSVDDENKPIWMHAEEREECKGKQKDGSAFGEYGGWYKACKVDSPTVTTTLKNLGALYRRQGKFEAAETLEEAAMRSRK

{TAMRA}-STNLEWDDSAI-NH2 [SKIP W-acidic motif peptide] showed a Kd (KLC1 TPR domain) of 830 nM and a Kd (KLC2 TPR domain) of 750 nM.
